# Test results as given in article PMC5716189 (Nucleic Acids Research, 2017).
# Square brackets hold non-standard residues; d marks the D form. Ends that are not written are not given here. * marks the point of attachment. FITC = O=C1OC2(c3ccc(O)cc3Oc3cc(O)ccc32)c2ccc(NC(=S)*)cc21; pT = C[C@@H](OP(=O)(O)O)[C@H](N)C(=O)O; pS = N[C@@H](COP(=O)(O)O)C(=O)O
# T1: APLF FHA domain (forkhead-associated domain of aprataxin and PNKP-like factor) (human, UniProt Q8IW19 1-105)
# T1 sequence: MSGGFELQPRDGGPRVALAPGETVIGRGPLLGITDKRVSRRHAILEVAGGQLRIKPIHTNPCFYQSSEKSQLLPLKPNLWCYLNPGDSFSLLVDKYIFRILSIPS
# Columns and labels:
# Settings in all cases: both partners purified
# [1] = target: T1, APLF FHA domain (forkhead-associated …); test: fluorescence polarisation; pH 7.4; apparent dissociation constants; FITC-Gly-Gly-labelled peptide with APLF FHA; 25 mM HEPES, 25 mM MES, 150 mM NaCl, 1 mM EDTA, 2 mM DTT, 0.05% Tween 20; room temperature; single-site fit
# [2] = target: T1, APLF FHA domain (forkhead-associated …); test: fluorescence polarisation; pH 5.5; apparent dissociation constants; FITC-Gly-Gly-labelled peptide with APLF FHA; 25 mM HEPES, 25 mM MES, 150 mM NaCl, 1 mM EDTA, 2 mM DTT, 0.05% Tween 20; room temperature; single-site fit
# [3] = target: T1, APLF FHA domain (forkhead-associated …); test: fluorescence polarisation; pH 6.0; apparent dissociation constants; FITC-Gly-Gly-labelled peptide with APLF FHA; 25 mM HEPES, 25 mM MES, 150 mM NaCl, 1 mM EDTA, 2 mM DTT, 0.05% Tween 20; room temperature; single-site fit
# [4] = target: T1, APLF FHA domain (forkhead-associated …); test: fluorescence polarisation; pH 6.5; apparent dissociation constants; FITC-Gly-Gly-labelled peptide with APLF FHA; 25 mM HEPES, 25 mM MES, 150 mM NaCl, 1 mM EDTA, 2 mM DTT, 0.05% Tween 20; room temperature; single-site fit
# [5] = target: T1, APLF FHA domain (forkhead-associated …); test: fluorescence polarisation; pH 7.0; apparent dissociation constants; FITC-Gly-Gly-labelled peptide with APLF FHA; 25 mM HEPES, 25 mM MES, 150 mM NaCl, 1 mM EDTA, 2 mM DTT, 0.05% Tween 20; room temperature; single-site fit
# [6] = target: T1, APLF FHA domain (forkhead-associated …); test: NMR titration; 2D 1H,15N-HSQC of 0.1 mM U-[15N] APLF-FHA as a function of phosphopeptide concentration (0–800 μM); 25 mM HEPES, 25 mM MES, 150 mM NaCl, 1 mM EDTA, pH 7.4; 35°C; lineshape simulation (two-site exchange) for Kd and τB of the 18-residue peptide
# [7] = target: T1, APLF FHA domain (forkhead-associated …); test: crystal structure; sitting drop vapor diffusion, 20°C; APLF FHA 9–10 mg/ml with peptide at a 1:1 peptide:protein ratio
# [8] = target: T1, APLF FHA domain (forkhead-associated …); test: NMR titration; 2D 1H,15N-HSQC of 0.1 mM U-[15N] APLF-FHA as a function of phosphopeptide concentration (0–800 μM); 25 mM HEPES, 25 mM MES, 150 mM NaCl, 1 mM EDTA, pH 7.4; 35°C; lineshape simulation (two-site exchange) for Kd and τB of the 18-residue peptide; remark: listed apart in the source
binder,measurement,setting,value
{FITC}-GGDPYAG[pS][pT]DENEDEEEHQE [FITC-Gly-Gly-XRCC1_(pSpTEE-18) diphosphopeptide],Kd,[1],300 ± 70 nM
{FITC}-GGQEENGEDPYAG[pS][pT]DENTDSEEHQE [FITC-Gly-Gly-XRCC1_(pSpT-24) diphosphopeptide],Kd,[1],160 ± 20 nM
same,Kd,[2],6650 ± 2350 nM
same,Kd,[3],3650 ± 910 nM
same,Kd,[4],320 ± 90 nM
same,Kd,[5],200 ± 30 nM
PYAG[pS][pT]DEN [XRCC1_(pSpT-9) diphosphopeptide],Kd,[6],80000 nM
PYAGE[pT]DEN [XRCC1_(EpT-9) monophosphopeptide],binding result,[7],binds
"DPYAG[pS][pT]DENTDSEEHQE [XRCC1_(pSpT-18) diphosphopeptide, unlabelled (NMR studies)]",Kd,[8],4000 nM
